Assay results from the supplement of paper PMC12455559.
± gives the standard deviation of the averaged measurements.

Tests used:
[1] = melting temperature (DSF); higher = more thermostable
Method in brief: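 After expression in E. coli C41(DE3), the candidate enzymes were bound to nickel beads and released with SUMO protease. Their melting temperature was found by differential scanning fluorimetry with Sypro Orange on a Bio-Rad CFX96. Each sealed PCR plate well held 45 μL enzyme (0 to 0.3 mg/mL) plus 5 μL 5X dye, and fluorescence was read for 250 cycles from 25 °C at 0.3 °C per cycle (ramp 0.3 °C/s).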

[2] = purified protein yield per well (BCA); higher = higher soluble expression
Method in brief: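 Purified protein yield per well is reported, as measured by the Pierce Rapid Gold BCA kit. The enzymes came from E. coli C41(DE3) autoinduction cultures of 2 mL with 100 µg/mL kanamycin, held at 37 °C for 2 h and 18 °C for 40 h, then lysed and purified on Ni-charged magnetic beads with SUMO protease release. The detection threshold is 25 ug (0.1 mg/mL), and lower values are under it.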

[3] = PET hydrolysis, aromatic products released after 48 h (umol product/mg enzyme); higher = more PET depolymerization activity
Method in brief: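 Sealed plates containing 3.5 mg PET (amorphous film or crystalline powder), 450 μL buffer and 5 μg (50 μL) tagless candidate enzyme were held 48 h at 40 or 60 °C with no shaking. Supernatants were then read at 260 and 280 nm against buffer blanks. The aromatic product detected this way, per mg enzyme, defines PET hydrolysis activity.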

[4] = substrate: cryPow, 40 °C, pH 4.5
[5] = substrate: cryPow, 40 °C, pH 5.5
[6] = substrate: cryPow, 40 °C, pH 6.5
[7] = substrate: cryPow, 40 °C, pH 7.5
[8] = substrate: aFilm, 40 °C, pH 5.5
[9] = substrate: aFilm, 40 °C, pH 6.5
[10] = substrate: aFilm, 40 °C, pH 7.5
[11] = substrate: aFilm, 40 °C, pH 8.5
[12] = substrate: aFilm, 60 °C, pH 5.5
[13] = substrate: aFilm, 60 °C, pH 6.5
[14] = substrate: aFilm, 60 °C, pH 7.5
[15] = substrate: aFilm, 60 °C, pH 8.5
[16] = substrate: cryPow, 40 °C, pH 8.5
[17] = substrate: cryPow, 60 °C, pH 5.5
[18] = substrate: cryPow, 60 °C, pH 6.5
[19] = substrate: cryPow, 60 °C, pH 7.5
[20] = substrate: cryPow, 60 °C, pH 8.5
[21] = substrate: aFilm, 40 °C, pH 4.5
[22] = substrate: aFilm, 60 °C, pH 4.5
[23] = substrate: cryPow, 60 °C, pH 4.5

Sequence | melting temperature [1] [C] | purified protein yield per well [2] [µg] | PET hydrolysis [3, 4] | PET hydrolysis [3, 5] | PET hydrolysis [3, 6] | PET hydrolysis [3, 7] | PET hydrolysis [3, 8] | PET hydrolysis [3, 9] | PET hydrolysis [3, 10] | PET hydrolysis [3, 11] | PET hydrolysis [3, 12] | PET hydrolysis [3, 13] | PET hydrolysis [3, 14] | PET hydrolysis [3, 15] | PET hydrolysis [3, 16] | PET hydrolysis [3, 17] | PET hydrolysis [3, 18] | PET hydrolysis [3, 19] | PET hydrolysis [3, 20] | PET hydrolysis [3, 21] | PET hydrolysis [3, 22] | PET hydrolysis [3, 23]
FSAPGPSAPCSNCTRGPAPTVASLKASSGPFSTAKFSVSGYLKGFGNSTVYYPTNTSGKMGAIAVIPGYLSYESSIEWWGPRLASHGFVVMTMNTNSIYDQPDSRATQLSKALDYLISQSGSSSSPIYGKVDSSRLGAIGWSMGGGGSLKLSTQRSINAIIPQAPWYLGSNTFNTIKTPALILACSADTVAPVYQHASPFYNRIPTSTPKAFLEIYGGSHFCANSGYPNEDLLGMYGIAWMKRFIDFDSRYSQFLCGPNHESDYAISEYRQNCPY [ESM017] | 56.5 | 53.8 | < 3 | < 3 | 11 | 33 |  |  |  |  |  |  |  |  |  |  |  |  |  |  |  | 
GETAQTTDVSAQSQFQRGPNPTVSSIEARTGHYRTSTTRVSSFASGFGGGTIYYPTTTSDGTFGGVAVAPGYTASSSTMDWLGPRIASQGFVVFVIDTNTRLDQPSSRGRQLLAALDYLTERSSERHRVDSNRLAVMGHSMGGGGALEATISRPSLKASIPLTPWNLTKNWSRVTTPTLIVGAENDSVASVRSHSIPFYTSLSSSTDRMYVELDGASHFAPNVSNTTIAKYSISWLKRFVDDDTRYDQFLCPLPNERAISDIRGNCPR [DP090] | 51.4 | 423 |  | < 3 | 7 | 12.5 ± 9.2 | < 3 | 5 ± 7.1 | 12 ± 7.1 | 22 ± 17 | < 3 | < 3 | < 3 | < 3 | 25.5 ± 0.71 | < 3 | < 3 | 2 ± 2.8 | 2 ± 2.8 |  |  | 
GQAAVPVAVAGTSAFAKGPDPTEQSIQAQRGPFATAQRTVPSEAGRAFNRGTVHYPTDTSHGTYGAVVVSPGFFGPEFSVAWYGSTLASHGFVVLTLETNFLFDQPDARATQLLAGLDWLAARSPVKDRVDPNRLAVMGHSMGGGGTLIAASRNPALKAAIPLTPWNTSPDFSTVTVPTLVLGTDNDTVAPVARHADPMYASLRDKPDEGYVKLRGDHFTPIRYTAAATRFIVPWLKRYVDEDTRYSRFLCPLPAPDATLVSFELRCPV [DP040] | 40.3 | 28 |  | < 3 | 3 | < 3 |  |  |  |  |  |  |  |  | < 3 |  |  |  |  |  |  | 
GQAPTTAAQVRASAFAKGPDPTEQTIKAQRGPFQIKQLSVAAQSGRGFNRGTIYYPTDTGQGTYGAIAVIPGFLEPEFITSWYGPTLASYGFVVMTLEPFAITDFPDPRSNQLLAAVDWLAADSPVKAQVDPNRLAVMGHSMGGGGALLAASKRPSLKAAVPLAPWNLYADFAGVTVPTLVIGADNDFIAPVGMHADPMYASIKASPNEGYLKLKNADHFTVNSYSATLTKFTVSWMKRYVDEDTRYTQFLCPAPQPDPSFASFQMTCPS [TEP173] | 41.2 | 293 | < 3 | < 3 | < 3 | < 3 | < 3 | < 3 | < 3 |  | < 3 | < 3 | < 3 |  |  | < 3 | < 3 | < 3 |  | < 3 | < 3 | < 3
GRVMAASDSGTAADERVYAEPSVDPASVGSAGRNPYERGPEPTLASVAAEYGPFDTDQLTVPPGHGFNGGYIYYPTDTSQTFGAVAIVPGYTALFADEEAWMGPRLASFGFVVIGIETNSRDDWDIARGEQLLAALDYLVHHSPVRARIDANRLAVVGHSMGGGGALFAATQRPSLKAVVALAPYFPSGSLAAIRVPTMIIGGQDDTVVTPSYLDDLYASRPAHTPGAYLMLADADHLFATRPNTVEMRLLIPWLKIFVDHDTRYTQFLCPVADRSGIARHHVT [TEP126] | 55.9 | 166 | < 3 | < 3 | < 3 | < 3 |  |  |  |  |  |  |  |  |  | < 3 | < 3 | < 3 |  |  |  | < 3
GSLAHIVMVDAYKPTKGSGASQTNPYARGPNPTAASLEASAGPFTVRSFTVSRPSGYGAGTVYYPTNAGGTVGAIAIVPGYTARQSSIKWWGPRLASHGFVVITIDTNSTFDYPSSRSSQQMAALRQVASLNGDSSSPIYGKVDTARMGVMGHSMGGGASLRSAANNPSLKAAIPQAPWDSQTNFSSVTVPTLIFACENDSIAPVNSHALPIYDSMSRNAKQFLEINGGSHSCANSGNSNQALIGKKGVAWMKRFMDNDTRYSTFACENPNSTAVSDFRTANCSLEGSGGSGAHIVMVDAYKPTK [TEP004] | 73.9 | 77.2 | 4 | 33 | 62 | 69 |  |  |  |  |  |  |  |  |  | 14 | 76 | 82 |  |  |  | < 3
GTTASATTVSGTQAAAAQEYRRGPDPTAQSVEAATGPFAIQQTSVPAGNGFGGGTIYYPTDTSQGTFGAIAISPGWTEDQSAIAWLGPKLASNGFVVMTINNNNAFLDFPDARGTQLLAALDSLTGQSPVAGRIDKNRLAVAGHSMGGGGALRAAATRPEIQAAIPLTPWHLNQDWSSVRVPTLIVGGETDIIASVGAHSEPFYESLTNAPERAYLEMEGQGHFVTNSANPTVGRYVLSWLKRYVDNDTRYEQFLCPAPAPSSVISEYRDSCPGS [DP018] | 66.1 | 84 |  | < 3 | < 3 | < 3 |  |  |  |  |  |  |  |  | < 3 | < 3 | < 3 | < 3 | < 3 |  |  | 
LFDNNGNKKQAYDATLSALNAGGTPVSPSPSVSPTAGPSPSTSPSPSPPPGDNPYQRGPDPTRDSVAANRGTFATAEMSVSPGNGFNGGSIYYPTDTSQGTFGAVAIVPGYTARFADEEAWMGHWLASFGFVVIGVETNSTNDFDTARGTQLLAALDWLTQSSPVRDRIDASRQSVIGHSMGGGGALHAAGNRSSLKAAVGLTPFMPSGTPANNQVPTLMIAGTNDTVVAPSYVTDLYNALPSSTERAYMEFVGADHLFPTRPNNLEMRILIPWLKTFVDSDSRYTQFLCPLMDSSGIAGYRNSCPLLPDQPTPPPTPTPSPTTPTPDPTTPGPGTCTATMSTGQVWGDRYNTSVTVTGTSNWTVVVAITPPQRISATWNGNPTWDSSGNVMTIRANGNGNVFGFTTMFNGNSWARPQIRSCTAG [DP081] | 57.1 | 244 |  | 7.5 ± 0.71 | 21 ± 2.8 | 14.5 ± 0.71 | < 3 | < 3 | < 3 | < 3 | < 3 | < 3 | < 3 | < 3 | 12.5 ± 2.1 | < 3 | < 3 | < 3 | < 3 |  |  | 
LNPYQRGPNPTDAILEASSGPYATSSISVPSIVSGFGGGRIYYPTTTADGTFGGIAISPGFTATWSSLSWLGPRLASHGFVVIGIETNTIYDQPTSRGQQLLAALDYLVNTSSVRTRVDSSRLAVAGHSMGGGGTLWAANSRPSLQAAIPLAPWNTDKSWSGVRVPTLIVGGQSDTVAPVATHSIPFYTSIPAASEKAYLELRSASHFFPQTVNTTVAVSMVSWLKRYVDDDTRYDPWLCPGPSGLSVSDYRDTCPA [TEP178] | 52 | 64.5 | < 3 | 6 | 21 | 29 |  |  |  |  |  |  |  |  |  | < 3 | 3 | 4 |  |  |  | < 3
LTPSPTPPPTGGTGGCPADAICRGETPGSYSANGPYGSRSYTLSRIQTPGGATVYYPANAEPPFSGLVFTPPYTGSQFMYRAWGPFFASHGIVMVTMDTRTTLDSVDQRAAQQKQVLDALKAENTRSASPLRGKLDTSRLGAVGWSMGGGATWINSAEYSGLKTAMSLAGHNLSALDINARGSNTRVPTLIMNGALDATYLGGLGQSLGVYNNIPRGIPKVIYEVSSAGHFSWGSPTSAGRSVAQIALAFQKTFLDGDTRWATYIRRPSSGVATWRTANLP [ESM175] | 46 | 285 | < 3 | < 3 | < 3 | < 3 | < 3 | < 3 | < 3 |  | < 3 | < 3 | < 3 |  |  | < 3 | < 3 | < 3 |  | < 3 | < 3 | < 3
MAAANPYQRGPDPTLASVAATNGPFATAQMTVPPGNGFNGGYIYYPTDTSLGTWGAVAIVPGYTALFKNEEAWMGPRLASFGFVVIGIETNSRTDFDTARGTQLLAALDYLTQKSAVRNRVDPGRLGVIGHSMGGGGALVAATQRPSLKAAVGLAPFKPSGNLANDRVPTMFIAGNRDTVVTPSYLDGLYGSLPAATKKAYVQINGADHLFATKPNTVEMRTLIPWLKIFLDNDTRYSQFLCPTLLDKTGVSMYRGTCPLI [TEP109] | 61.6 | 285 | 28.5 ± 0.71 | 43 ± 1.4 | 67 ± 7.1 | 65.5 ± 3.5 | 12.5 ± 2.1 | 10.5 ± 2.1 | < 3 |  | 2 ± 2.8 | < 3 | < 3 |  |  | 47 ± 1.4 | 23 ± 4.2 | 5.5 ± 0.71 |  | 7 ± 1.4 | < 3 | 12.5 ± 2.1
MAADNPYQRGPNPTSASVAASRGTFATAELSVPRGNGFGGGKIYYPTDTTQGTFGAIAIVPGYTATWAAEGAWMGHWLASFGFVVIGIDTNSRNDNDTARGTQLLAALDYLTQRSSVRGRVDAKRLAVMGHSMGGGGALVAARQRPSLKAAVGLAPFKPSGPPSADRVPTMVIAGQRDGTVTPSYVDGLYRAIPAGTEKAYLEFAGAGHAFPTRPNPLQMRLVIPWLKSFTDHDTRYHQFLCPLKDRTGVTAYRSTCPLVAPGARD [TEP041] | 54.4 | 427 | < 3 | < 3 | 3 | < 3 | < 3 | < 3 | < 3 |  | < 3 | < 3 | < 3 |  |  | < 3 | < 3 | < 3 |  | < 3 | < 3 | < 3
